Source: paper PMC10303025

Biological target: T1, M2-1 transcription antiterminator (Human respiratory syncytial virus, UniProt P04545 1-194)
T1 sequence: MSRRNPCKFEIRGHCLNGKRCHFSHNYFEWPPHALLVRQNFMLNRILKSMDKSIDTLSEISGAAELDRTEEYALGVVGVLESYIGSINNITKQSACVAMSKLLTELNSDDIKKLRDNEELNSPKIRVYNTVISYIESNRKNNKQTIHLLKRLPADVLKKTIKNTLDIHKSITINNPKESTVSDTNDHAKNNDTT
Assay: not stated (EMSA and fluorescence polarization titrations mentioned); Kd may derive from earlier work [37]
Details: protein: recombinant; chain copies: 4; label: 5' 6-FAM; single strand

With AUAAAGUAGUUAAUUAAAAA (ssRNA) [RNARSV20 (SH gene end 20-mer)] the Kd was 20 nM.
